{
  "source": "paper PMC8031885",
  "key": {"[1]": {"target": "gH/gL/gO trimer of HCMV TB40-BAC4 (human cytomegalovirus, strain TB40/E (TB40-BAC4))"}, "[2]": {"target": "gH/gL/gO trimer of HCMV TB40-BAC4 (human cytomegalovirus, strain TB40/E (TB40-BAC4))", "remark": "listed apart in the source"}, "[3]": {"target": "gH/gL/gO trimer of HCMV TB40-BAC4 (human cytomegalovirus, strain TB40/E (TB40-BAC4))", "remark": "listed apart in the source"}, "[4]": {"target": "PDGF-BB (UniProt P01127)", "sequence (P01127 82-190)": "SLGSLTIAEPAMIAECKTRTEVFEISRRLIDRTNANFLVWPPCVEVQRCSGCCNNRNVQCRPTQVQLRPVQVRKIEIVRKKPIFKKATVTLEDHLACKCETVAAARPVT"}, "[5]": {"target": "PDGF-BB (UniProt P01127)", "remark": "listed apart in the source"}},
  "data": [
    {"substance": "PDGFRα-Fc delQ294-E298 (from UniProt P16234-1 24-528) (Fc fusion)", "values": [
      {"measurement": "inhibition of HCMV TB40-BAC4-IE-GLuc infection of fibroblasts (Gaussia luciferase read-out), 4,000 to 1 ng/ml; EC50 against wild type (fold higher EC50 than wild type)", "setting": "[1]", "result": 10}
    ]},
    {"substance": "PDGFRα-Fc delM133-I139 (from UniProt P16234-1 24-528) (Fc fusion)", "values": [
      {"measurement": "inhibition of HCMV TB40-BAC4-IE-GLuc infection of fibroblasts (Gaussia luciferase read-out), 4,000 to 1 ng/ml; EC50 against wild type (fold higher EC50 than wild type)", "setting": "[1]", "result": 10}
    ]},
    {"substance": "PDGFRα-Fc delN204-Y206 (from UniProt P16234-1 24-528) (Fc fusion)", "values": [
      {"measurement": "inhibition of HCMV TB40-BAC4-IE-GLuc infection of fibroblasts (Gaussia luciferase read-out), 4,000 to 1 ng/ml; EC50 against wild type (fold higher EC50 than wild type)", "setting": "[1]", "result": 10}
    ]},
    {"substance": "PDGFRα-Fc I139V (from UniProt P16234-1 24-528) (Fc fusion)", "values": [
      {"measurement": "HCMV inhibition EC50 (TB40-BAC4-IE-GLuc, fibroblasts, immediate-early antigen staining)", "setting": "[2]", "result": 9.5, "unit": "ng/mL"}
    ]},
    {"substance": "PDGFRα-Fc E298A (from UniProt P16234-1 24-528) (Fc fusion)", "values": [
      {"measurement": "inhibition of HCMV TB40-BAC4-IE-GLuc infection of fibroblasts (Gaussia luciferase read-out), against wild type (fold increase of the inhibitory effect)", "setting": "[3]", "result": 3}
    ]},
    {"substance": "PDGFRα-Fc I139A (from UniProt P16234-1 24-528) (Fc fusion)", "values": [
      {"measurement": "reduction of Akt phosphorylation induced by 50 ng/ml PDGF-BB in fibroblasts, phospho-Akt immunoblot, 4,000 ng/ml PDGFRα-Fc", "setting": "[4]", "result": 20, "unit": "%"},
      {"measurement": "inhibition of HCMV TB40-BAC4-IE-GLuc infection of fibroblasts (Gaussia luciferase read-out), against wild type (fold decrease of the efficiency)", "setting": "[3]", "result": 4},
      {"measurement": "reduction of p-Akt signal induced by 6 ng/ml PDGF-BB in fibroblasts, quantitative immunoblot, 4000 ng/ml PDGFRα-Fc", "setting": "[5]", "result": 80, "unit": "%"}
    ]},
    {"substance": "PDGFRα-Fc Q294A (from UniProt P16234-1 24-528) (Fc fusion)", "values": [
      {"measurement": "inhibition of HCMV TB40-BAC4-IE-GLuc infection of fibroblasts (Gaussia luciferase read-out), against wild type (fold increase of the inhibitory effect)", "setting": "[3]", "result": 3}
    ]},
    {"substance": "PDGFRα-Fc Y206F (from UniProt P16234-1 24-528) (Fc fusion)", "values": [
      {"measurement": "HCMV inhibition EC50 (TB40-BAC4-IE-GLuc, fibroblasts, immediate-early antigen staining)", "setting": "[2]", "result": 5.9, "unit": "ng/mL"}
    ]},
    {"substance": "PDGFRα-Fc I139L (from UniProt P16234-1 24-528) (Fc fusion)", "values": [
      {"measurement": "HCMV inhibition EC50 (TB40-BAC4-IE-GLuc, fibroblasts, immediate-early antigen staining)", "setting": "[2]", "result": 6.6, "unit": "ng/mL"}
    ]},
    {"substance": "PDGFRα-Fc Y206A (from UniProt P16234-1 24-528) (Fc fusion)", "values": [
      {"measurement": "reduction of Akt phosphorylation induced by 50 ng/ml PDGF-BB in fibroblasts, phospho-Akt immunoblot, 4,000 ng/ml PDGFRα-Fc", "setting": "[4]", "result": 60, "unit": "%"},
      {"measurement": "inhibition of HCMV TB40-BAC4-IE-GLuc infection of fibroblasts (Gaussia luciferase read-out), against wild type (fold decrease of the efficiency)", "setting": "[3]", "result": 4}
    ]},
    {"substance": "PDGFRα-Fc T296A (from UniProt P16234-1 24-528) (Fc fusion)", "values": [
      {"measurement": "inhibition of HCMV TB40-BAC4-IE-GLuc infection of fibroblasts (Gaussia luciferase read-out), against wild type (fold increase of the inhibitory effect)", "setting": "[3]", "result": 3}
    ]}
  ]
}
